Test results from patent publication CN114591430A.
Values joined by “and” are separate entries in the source; they are usually repeats but may differ in a detail not shown here. Identical values can stand only once.

Assays:
牛血清白蛋白(BSA) (bovine) [1] = target: 牛血清白蛋白(BSA) (bovine) (UniProt P02769); assay: ELISA, BSA coated at 1 ug/ml, biotin-labelled antibody at dilution 256K, HRP-avidin
牛血清白蛋白(BSA) (bovine) [2] = target: 牛血清白蛋白(BSA) (bovine) (UniProt P02769); assay: indirect ELISA, BSA coated at 1 ug/ml, purified antibody at dilution 64K, HRP goat anti-mouse IgG
牛血清白蛋白(BSA) (bovine) [3] = target: 牛血清白蛋白(BSA) (bovine) (UniProt P02769); assay: ELISA, BSA coated at 1 ug/ml, biotin-labelled antibody at dilution 8K, HRP-avidin
牛血清白蛋白(BSA) (bovine) [4] = target: 牛血清白蛋白(BSA) (bovine) (UniProt P02769); assay: ELISA, BSA coated at 1 ug/ml, biotin-labelled antibody at dilution 32K, HRP-avidin
牛血清白蛋白(BSA) (bovine) [5] = target: 牛血清白蛋白(BSA) (bovine) (UniProt P02769); assay: sandwich ELISA, coat B2 2 ug/ml, BSA 1 ng/ml, detection biotin-B6 0.2 ug/ml
牛血清白蛋白(BSA) (bovine) [6] = target: 牛血清白蛋白(BSA) (bovine) (UniProt P02769); assay: sandwich ELISA, coat B2 2 ug/ml, BSA 1 ng/ml, detection biotin-B1 0.2 ug/ml
牛血清白蛋白(BSA) (bovine) [7] = target: 牛血清白蛋白(BSA) (bovine) (UniProt P02769); assay: ELISA, BSA coated at 1 ug/ml, biotin-labelled antibody at dilution 4K, HRP-avidin
牛血清白蛋白(BSA) (bovine) [8] = target: 牛血清白蛋白(BSA) (bovine) (UniProt P02769); assay: sandwich ELISA, coat B2 2 ug/ml, BSA 3 ng/ml, detection biotin-B6 0.2 ug/ml, mean of A and B
CHO细胞裂解液 [9] = assay: sandwich ELISA, coat B2, detection biotin-B6, lysate 250 ug/ml
Vero细胞裂解液 [10] = assay: as above
HEK293细胞裂解液 [11] = assay: as above
牛血清白蛋白(BSA) (bovine) [12] = target: 牛血清白蛋白(BSA) (bovine) (UniProt P02769); assay: indirect ELISA, BSA coated at 1 ug/ml, purified antibody at dilution 2K, HRP goat anti-mouse IgG
CHO细胞裂解液 [13] = assay: sandwich ELISA, coat B2, detection biotin-B6, lysate 500 ug/ml
Vero细胞裂解液 [14] = assay: as above
HEK293细胞裂解液 [15] = assay: as above
CHO细胞裂解液 [16] = assay: sandwich ELISA, coat B2, detection biotin-B6, lysate 31.25 ug/ml
Vero细胞裂解液 [17] = assay: as above
HEK293细胞裂解液 [18] = assay: as above
牛血清白蛋白(BSA) (bovine) [19] = target: 牛血清白蛋白(BSA) (bovine) (UniProt P02769); assay: indirect ELISA, BSA coated at 1 ug/ml, purified antibody at dilution 512K, HRP goat anti-mouse IgG
牛血清白蛋白(BSA) (bovine) [20] = target: 牛血清白蛋白(BSA) (bovine) (UniProt P02769); assay: ELISA, BSA coated at 1 ug/ml, biotin-labelled antibody at dilution 16K, HRP-avidin
牛血清白蛋白(BSA) (bovine) [21] = target: 牛血清白蛋白(BSA) (bovine) (UniProt P02769); assay: sandwich ELISA, coat B2 2 ug/ml, BSA 1.5 ng/ml, detection biotin-B6 0.2 ug/ml, mean of A and B
牛血清白蛋白(BSA) (bovine) [22] = target: 牛血清白蛋白(BSA) (bovine) (UniProt P02769); assay: sandwich ELISA, coat B2 2 ug/ml, BSA 6 ng/ml, detection biotin-B6 0.2 ug/ml, mean of A and B
牛血清白蛋白(BSA) (bovine) [23] = target: 牛血清白蛋白(BSA) (bovine) (UniProt P02769); assay: ELISA, BSA coated at 1 ug/ml, biotin-labelled antibody at dilution 128K, HRP-avidin
牛血清白蛋白(BSA) (bovine) [24] = target: 牛血清白蛋白(BSA) (bovine) (UniProt P02769); assay: indirect ELISA, BSA coated at 1 ug/ml, purified antibody at dilution 1K, HRP goat anti-mouse IgG
牛血清白蛋白(BSA) (bovine) [25] = target: 牛血清白蛋白(BSA) (bovine) (UniProt P02769); assay: ELISA, BSA coated at 1 ug/ml, biotin-labelled antibody at dilution 2K, HRP-avidin
牛血清白蛋白(BSA) (bovine) [26] = target: 牛血清白蛋白(BSA) (bovine) (UniProt P02769); assay: sandwich ELISA, coat B2 2 ug/ml, BSA 12 ng/ml, detection biotin-B6 0.2 ug/ml
CHO细胞裂解液 [27] = assay: sandwich ELISA, coat B2, detection biotin-B6, lysate 62.5 ug/ml
Vero细胞裂解液 [28] = assay: as above
HEK293细胞裂解液 [29] = assay: as above
牛血清白蛋白(BSA) (bovine) [30] = target: 牛血清白蛋白(BSA) (bovine) (UniProt P02769); assay: sandwich ELISA, coat B2 2 ug/ml, BSA 1 ng/ml, detection biotin-B3 0.2 ug/ml
牛血清白蛋白(BSA) (bovine) [31] = target: 牛血清白蛋白(BSA) (bovine) (UniProt P02769); assay: indirect ELISA, BSA coated at 1 ug/ml, purified antibody at dilution 256K, HRP goat anti-mouse IgG
牛血清白蛋白(BSA) (bovine) [32] = target: 牛血清白蛋白(BSA) (bovine) (UniProt P02769); assay: sandwich ELISA, coat B2 2 ug/ml, BSA 24 ng/ml, detection biotin-B6 0.2 ug/ml
牛血清白蛋白(BSA) (bovine) [33] = target: 牛血清白蛋白(BSA) (bovine) (UniProt P02769); assay: indirect ELISA, BSA coated at 1 ug/ml, purified antibody at dilution 32K, HRP goat anti-mouse IgG
CHO细胞裂解液 [34] = assay: sandwich ELISA, coat B2, detection biotin-B6, lysate 15.63 ug/ml
Vero细胞裂解液 [35] = assay: as above
HEK293细胞裂解液 [36] = assay: as above

Chain of UniProt P02769 (P02769 25-607): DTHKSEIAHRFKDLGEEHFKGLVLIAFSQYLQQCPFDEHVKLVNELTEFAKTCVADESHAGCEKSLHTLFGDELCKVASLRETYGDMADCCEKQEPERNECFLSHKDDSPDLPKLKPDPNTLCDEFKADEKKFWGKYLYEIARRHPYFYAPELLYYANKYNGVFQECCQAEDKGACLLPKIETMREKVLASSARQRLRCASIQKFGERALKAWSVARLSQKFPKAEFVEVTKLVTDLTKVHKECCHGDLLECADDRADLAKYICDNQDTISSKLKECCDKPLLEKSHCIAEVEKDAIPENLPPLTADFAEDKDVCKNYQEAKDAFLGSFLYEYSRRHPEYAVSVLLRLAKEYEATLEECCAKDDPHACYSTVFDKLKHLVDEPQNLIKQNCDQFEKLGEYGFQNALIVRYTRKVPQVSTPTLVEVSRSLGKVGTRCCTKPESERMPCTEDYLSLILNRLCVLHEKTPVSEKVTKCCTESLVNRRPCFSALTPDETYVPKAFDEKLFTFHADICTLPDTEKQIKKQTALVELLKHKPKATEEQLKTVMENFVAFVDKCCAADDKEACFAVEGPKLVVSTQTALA

- OD450 (牛血清白蛋白(BSA) (bovine) [1]): 0.509
- OD450 (牛血清白蛋白(BSA) (bovine) [2]): 0.335
- OD450 (牛血清白蛋白(BSA) (bovine) [3]): 1.81
- OD450 (牛血清白蛋白(BSA) (bovine) [4]): 1.22
- OD450 (牛血清白蛋白(BSA) (bovine) [5]): 0.38 and 0.378
- OD450 (牛血清白蛋白(BSA) (bovine) [6]): 0.312 and 0.315
- OD450 (牛血清白蛋白(BSA) (bovine) [7]): 2.02
- OD450 (平均值) (牛血清白蛋白(BSA) (bovine) [8]): 0.512
- OD450 (CHO细胞裂解液 [9]): 0.134
- OD450 (Vero细胞裂解液 [10]): 0.14
- OD450 (HEK293细胞裂解液 [11]): 0.134
- OD450 (牛血清白蛋白(BSA) (bovine) [12]): 1.69
- OD450 (CHO细胞裂解液 [13]): 0.135
- OD450 (Vero细胞裂解液 [14]): 0.134
- OD450 (HEK293细胞裂解液 [15]): 0.139
- OD450 (CHO细胞裂解液 [16]): 0.136
- OD450 (Vero细胞裂解液 [17]): 0.142
- OD450 (HEK293细胞裂解液 [18]): 0.134
- OD450 (牛血清白蛋白(BSA) (bovine) [19]): 0.137
- OD450 (牛血清白蛋白(BSA) (bovine) [20]): 1.6
- OD450 (平均值) (牛血清白蛋白(BSA) (bovine) [21]): 0.408
- OD450 (平均值) (牛血清白蛋白(BSA) (bovine) [22]): 0.688
- OD450 (牛血清白蛋白(BSA) (bovine) [23]): 0.821
- OD450 (牛血清白蛋白(BSA) (bovine) [24]): 2.13
- OD450 (牛血清白蛋白(BSA) (bovine) [25]): 2.21
- OD450 (牛血清白蛋白(BSA) (bovine) [26]): 1.01 and 1
- OD450 (CHO细胞裂解液 [27]): 0.129
- OD450 (Vero细胞裂解液 [28]): 0.137
- OD450 (HEK293细胞裂解液 [29]): 0.142
- OD450 (牛血清白蛋白(BSA) (bovine) [30]): 0.342 and 0.346
- OD450 (牛血清白蛋白(BSA) (bovine) [31]): 0.208
- OD450 (牛血清白蛋白(BSA) (bovine) [32]): 1.51 and 1.5
- OD450 (牛血清白蛋白(BSA) (bovine) [33]): 0.403
- OD450 (CHO细胞裂解液 [34]): 0.141
- OD450 (Vero细胞裂解液 [35]): 0.136
- OD450 (HEK293细胞裂解液 [36]): 0.136
B1: BSA抗体B2 (antibody, V domains shown)
VH: VKLQESGGGLVKPGGSLKLSCAASGFTFSLYDESWVRQTPEKRLEWVAEIFLGVYRYVPESKVRFTMSRDNAKNTLYLQMSSLRSEDTAMYYCVRLCYWEPEVKKCWGQGTTVTVSS
VL: DIELTQSPLTLSVTIGQPASISCESDLSLKESLDWLLQRPGQSPKRLIYEDLNADCGVPDRFTGSGSGTDSTLKISRVEAEDLGVYYCEIKGTFRWSFGGGTKLEIK
